# Results: patent US20200199244A1 (published 2020)
# Values joined by “and” are separate entries in the source; they are usually repeats but may differ in a detail not shown here. Equal values may be shown once.
# T1: Macaca fascicularis CD40 (Macaca fascicularis (cynomolgus monkey), UniProt P25942 21-277 (human entry))
# T1 chain: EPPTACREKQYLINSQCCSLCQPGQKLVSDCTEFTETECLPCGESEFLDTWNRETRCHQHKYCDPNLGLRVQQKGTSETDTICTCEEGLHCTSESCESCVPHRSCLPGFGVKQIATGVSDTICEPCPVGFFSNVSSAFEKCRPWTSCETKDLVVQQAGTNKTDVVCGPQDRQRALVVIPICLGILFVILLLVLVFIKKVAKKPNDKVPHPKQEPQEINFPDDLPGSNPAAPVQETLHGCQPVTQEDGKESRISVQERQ
# Assays:
# Macaca fascicularis CD40 = target: T1, Macaca fascicularis CD40; assay: cell-based or functional assay
# human CD40 [1] = target: T2, human CD40 (human, UniProt P25942 21-277); assay: cell-based or functional assay
# human CD40 [2] = target: T2, human CD40; assay: cell-based or functional assay; remark: listed apart in the source
# [3] = target: T3, human CD40 expressed on stably transfected CHO-DG44 cells (human, UniProt P25942 21-277); assay: CHO-CD40 cell RBA, competition with IZ-CD40L
# T3 construct: also called CHO-CD40
# Procedure: The mixture was incubated in the absence of light for 6 hours.
Binder,hIZCD40L-driven Cyno B Cell Proliferation EC50 (Macaca fascicularis CD40) [nM],hIZCD40L-driven Human B Cell Proliferation EC50 (human CD40 [1]) [nM],"ICAM-1 Cell Assay EC50 (nM), 10% bovine serum (human CD40 [2]) [nM]","ICAM-1 Cell Assay EC50 (nM), 10% human serum (human CD40 [2]) [nM]",other results
BMS3h-240 (other) VH: EVQLLESGGGLVQPGGSLRLSCAASGFTFWVYDMRWVRQAPGKGLEWVSTISATGVHTYYADSVKGRFTISRDNSKNTLYLQMNSLRAEDTAVYYCAKYPPAGRFDYWGQGTLVTVSS,> 7000,> 7000,,,
BMS3h-275 (other) VH: EVQLLESGGGLVQPGGSLRLSCAASGFTFTRYQMGWVRQAPGKGLEWVSVINVWGSSTYYADSVKGRFTISRDNSKNTLYLQMNSLRAEDTAVYYCAKMSGKFAYWGQGTLVTVSS,> 7000,157,,,
DMS0682 BMS3h-56-258-TVA-DOM7h-11-90 (bispecific antibody) EVQLLESGGGLVQPGGSLRLSCAASGFTFRDYEMWWVRQAPGKGLERVSAINPQGTRTYYADSVKGRFTISRDNSKNTLYLQMNSLRAEDTAVYYCAKLPFYFHEWGQGTLVTVSSTVADIQMTQSPSSLSASVGDRVTITCRASRPIGTMLSWYQQKPGKAPKLLILAFSRLQSGVPSRFSGSGSGTDFTLTISNLQPEDFATYYCAQAGTHPTTFGQGTKVEIKR,,,10.2,94.8,
DMS0681 DOM7h-11-90-(G4S)5-BMS3h-56-258 (bispecific antibody) DIQMTQSPSSLSASVGDRVTITCRASRPIGTMLSWYQQKPGKAPKLLILAFSRLQSGVPSRFSGSGSGTDFTLTISNLQPEDFATYYCAQAGTHPTTFGQGTKVEIKRGGGGSGGGGSGGGGSGGGGSGGGGSEVQLLESGGGLVQPGGSLRLSCAASGFTFRDYEMWWVRQAPGKGLERVSAINPQGTRTYYADSVKGRFTISRDNSKNTLYLQMNSLRAEDTAVYYCAKLPFYFHEWGQGTLVTVSS,,,43.6,53.3,
BMS3h-309 (other) VH: EVQLLESGGGLVQPGGSLRLSCAASGFTFSGHDMSWVRQAPGKGLEWVSAISPHGTHTYYADSVKGRFTISRDNSKNTLYLQMNSLRAEDTAVYYCAKGIRGWIGHDTQPFDYWGQGTLVTVSS,838,648,,,
DMS0685 BMS3h-56-258-(G4S)3-DOM7h-11-90 (bispecific antibody) EVQLLESGGGLVQPGGSLRLSCAASGFTFRDYEMWWVRQAPGKGLERVSAINPQGTRTYYADSVKGRFTISRDNSKNTLYLQMNSLRAEDTAVYYCAKLPFYFHEWGQGTLVTVSSGGGGSGGGGSGGGGSDIQMTQSPSSLSASVGDRVTITCRASRPIGTMLSWYQQKPGKAPKLLILAFSRLQSGVPSRFSGSGSGTDFTLTISNLQPEDFATYYCAQAGTHPTTFGQGTKVEIKR,,,31.9,62.4,
DMS0684 BMS3h-56-258-G4S-DOM7h-11-90 (bispecific antibody) EVQLLESGGGLVQPGGSLRLSCAASGFTFRDYEMWWVRQAPGKGLERVSAINPQGTRTYYADSVKGRFTISRDNSKNTLYLQMNSLRAEDTAVYYCAKLPFYFHEWGQGTLVTVSSGGGGSDIQMTQSPSSLSASVGDRVTITCRASRPIGTMLSWYQQKPGKAPKLLILAFSRLQSGVPSRFSGSGSGTDFTLTISNLQPEDFATYYCAQAGTHPTTFGQGTKVEIKR,,,37.9,74.3,
BMS3h-233 (other) VH: EVQLLESGGGLVQPGGSLRLSCAASGFTFAHYNMRWVRQAPGKGLEWVSTITKTGFRTYYADSVKGRFTISRDNSKNTLYLQMNSLRAEDTAVYYCAKAGQFDFDYWGQGTLVTVSS,> 7000,184,,,CHO-hCD40L-driven DC Activation IL-12 EC50 (human CD40 [1]): 1490 nM and > 2000 nM
BMS3h-257 (other) VH: EVQLLESGGGLVQPGGSLRLSCAASGFTFQNYQMAWVRQAPGKGLEWVSTISGTGKNTYYADSVKGRFTISRDNSKNTLYLQMNSLRAEDTAVYYCAKTPQNYFSVRRFDYWGQGTLVTVSS,> 7000,135,,,CHO-hCD40L-driven DC Activation IL-12 EC50 (human CD40 [1]): 704 nM
BMS3h-287 (other) VH: EVQLLESGGGLVQPGGSLRLSCAASGFTFTNYRMSWVRQAPGKGLEWVSAIDDLGVSTYYADSVKGRFTISRDNSKNTLYLQMNSLRAEDTAVYYCAKWRLKNSQPTDFDYWGQGTLVTVSS,918,287,,,
BMS3h-296 (other) VH: EVQLLESGGGLVQPGGSLRLSCAASGFTFGAYPMYWVRQAPGKGLEWVSSIHKDGRITYYADSVKGRFTISRDNSKNTLYLQMNSLRAEDTAVYYCAKQGTPVDGFDYWGQGTLVTVSS,> 7000,306,,,
DMS0679 DOM7h-11-90-G4S-BMS3h-56-258 (bispecific antibody) DIQMTQSPSSLSASVGDRVTITCRASRPIGTMLSWYQQKPGKAPKLLILAFSRLQSGVPSRFSGSGSGTDFTLTISNLQPEDFATYYCAQAGTHPTTFGQGTKVEIKRGGGGSEVQLLESGGGLVQPGGSLRLSCAASGFTFRDYEMWWVRQAPGKGLERVSAINPQGTRTYYADSVKGRFTISRDNSKNTLYLQMNSLRAEDTAVYYCAKLPFYFHEWGQGTLVTVSS,,,21.7,39.2,
DMS0683 BMS3h-56-258-ASTSGPS-DOM7h-11-90 (bispecific antibody) EVQLLESGGGLVQPGGSLRLSCAASGFTFRDYEMWWVRQAPGKGLERVSAINPQGTRTYYADSVKGRFTISRDNSKNTLYLQMNSLRAEDTAVYYCAKLPFYFHEWGQGTLVTVSSASTSGPSDIQMTQSPSSLSASVGDRVTITCRASRPIGTMLSWYQQKPGKAPKLLILAFSRLQSGVPSRFSGSGSGTDFTLTISNLQPEDFATYYCAQAGTHPTTFGQGTKVEIKR,,,32.4,50.9,
BMS3h-231 (other) VH: EVQLLESGGGLVQPGGSLRLSCAASGFTFSAYNMWWARQAPGKGLEWVSWINSTGSRTYYADSVKGRFTISRDNSKNTLYLQMNSLRAEDTAVYYCAKNWHRGRFDYWGQGTLVTVSS,> 7000,328,,,
DMS0686 BMS3h-56-258-(G4S)5-DOM7h-11-90 (bispecific antibody) EVQLLESGGGLVQPGGSLRLSCAASGFTFRDYEMWWVRQAPGKGLERVSAINPQGTRTYYADSVKGRFTISRDNSKNTLYLQMNSLRAEDTAVYYCAKLPFYFHEWGQGTLVTVSSGGGGSGGGGSGGGGSGGGGSGGGGSDIQMTQSPSSLSASVGDRVTITCRASRPIGTMLSWYQQKPGKAPKLLILAFSRLQSGVPSRFSGSGSGTDFTLTISNLQPEDFATYYCAQAGTHPTTFGQGTKVEIKR,,,48.3,66.6,
DMS0680 DOM7h-11-90-(G4S)3-BMS3h-56-258 (bispecific antibody) DIQMTQSPSSLSASVGDRVTITCRASRPIGTMLSWYQQKPGKAPKLLILAFSRLQSGVPSRFSGSGSGTDFTLTISNLQPEDFATYYCAQAGTHPTTFGQGTKVEIKRGGGGSGGGGSGGGGSEVQLLESGGGLVQPGGSLRLSCAASGFTFRDYEMWWVRQAPGKGLERVSAINPQGTRTYYADSVKGRFTISRDNSKNTLYLQMNSLRAEDTAVYYCAKLPFYFHEWGQGTLVTVSS,,,39.3,74.2,
"BMS3h-202-10 (other, dAb, single VH) VH: EVQLLESGGGLVQPGGSLRLSCAASGFTFPTAEMLWVRQAPGKGLEWVSSISASGGSTYYADSVKGRFTISRDNSKNTLYLQMNSLRAEDTAVYYCAKEPVYYVATFDYWGQGTLVTVSS",,,,,EC50 [3]: 7200 nM
"BMS3h-202-11 (other, dAb, single VH) VH: EVQLLESGGGLVQPGGSLRLSCAASGFTFPTAEMLWVRKAPGKGLEWVSSISASGGSTYYADSVKGRFTISRDNSKNTLYLQMNSLRAEDAAVYYCAKEPVSYVATFDYWGQGTLVTVSS",,,,,EC50 [3]: 8300 nM
"BMS3h-37-2 (other, dAb, single VH) VH: EVQLLESGGGLVQPGGSLRLSCAASGFTFEWYEMQWVRRAPGKGLEWVSAISGDGYRTYYADSVKGRFTISRDNSKNTLYLQMNSLRAEDTAVYYCAKELGYFDYWGRGTLVTVSS",,,,,EC50 [3]: 32 nM
"BMS3h-37-11 (other, dAb, single VH) VH: EVQLLESGGGLVQPGGSLRLSCAASGFTFEWYEMQWVRKAPGKGLEWVSAISGDGYRTYYADSVKGRFTISRDNSKNTLYLQMNSLRAEDTAVYYCAKELGYFDYRGRGTLVTVSS",,,,,EC50 [3]: 27 nM
"BMS3h-37-4 (other, dAb, single VH) VH: EVQLLESGGGLVQPGGSLRLSCAASGFTFEWYEMQWVRKAPGKGLEWVSAISGDGYRTYYADSVKGRFTISRDNSKNTLYLQMNSLRAEDTAVYYCAKELGYFDYWGRGTLVTVSS",,,,,EC50 [3]: 45 nM
DMS0677 DOM7h-11-90-TVA-BMS3h-56-258 (bispecific antibody) DIQMTQSPSSLSASVGDRVTITCRASRPIGTMLSWYQQKPGKAPKLLILAFSRLQSGVPSRFSGSGSGTDFTLTISNLQPEDFATYYCAQAGTHPTTFGQGTKVEIKRTVAEVQLLESGGGLVQPGGSLRLSCAASGFTFRDYEMWWVRQAPGKGLERVSAINPQGTRTYYADSVKGRFTISRDNSKNTLYLQMNSLRAEDTAVYYCAKLPFYFHEWGQGTLVTVSS,,,21.7,20.4,
BMS3h-312 (other) VH: EVQLLESGGGLVQPGGSLRLSCAASGFTFDDEKMLWVRQAPGKGLEWVSSISVSGLHTYYADSVKGRFTISRDNSKNTLYLQMNSLRAEDTAVYYCAKEEAGSWSFDYWGQGTLVTVSS,> 7000,1100,,,
